The assay concerns the target CD47 on Raji B cells (human) (UniProt Q08722). The experiment in a line: cell-based or functional assay.

B1: anti human CD47 (mouse antibody), clone B6H12 (antibody, from another filing, IgG1, V domains shown)
VH: EVQLVESGGDLVKPGGSLKLSCAASGFTFSGYGMSWVRQTPDKRLEWVATITSGGTYTYYPDSVKGRFTISRDNAKNTLYLQIDSLKSEDTAIYFCARSLAGNAMDYWGQGTSVTVSS
VL: DIVMTQSPATLSVTPGDRVSLSCRASQTISDYLHWYQQKSHESPRLLIKFASQSISGIPSRFSGSGSGSDFTLSINSVEPEDVGVYYCQNGHGFPRTFGGGTKLEIK
The molecule B1 came in with a whole cell eating of Raji B cells by CAR-P^FcRγ macrophages, antibody at 20 µg/ml of 2.5 fold.

The values above are taken from patent US20210277140A1.
